From US20160115200A1 (published 2016)
Square brackets hold non-standard residues; d marks the D form. Ends that are not written are not given here.

What was measured:
[1] = biological target: T1, His-JNK1 (ref 14-327, Upstate) (UniProt P45983 1-384); assay: kinase inhibition
[2] = biological target: T2, His-JNK3 (ref 14-501, Upstate) (UniProt P53779 1-422); assay: kinase inhibition
[3] = biological target: T1, His-JNK1 (ref 14-327, Upstate); assay: JNK inhibition assay
[4] = biological target: T2, His-JNK3 (ref 14-501, Upstate); assay: JNK inhibition assay

T2 sequence (P53779 other isoform, or with tags, fused parts or gaps): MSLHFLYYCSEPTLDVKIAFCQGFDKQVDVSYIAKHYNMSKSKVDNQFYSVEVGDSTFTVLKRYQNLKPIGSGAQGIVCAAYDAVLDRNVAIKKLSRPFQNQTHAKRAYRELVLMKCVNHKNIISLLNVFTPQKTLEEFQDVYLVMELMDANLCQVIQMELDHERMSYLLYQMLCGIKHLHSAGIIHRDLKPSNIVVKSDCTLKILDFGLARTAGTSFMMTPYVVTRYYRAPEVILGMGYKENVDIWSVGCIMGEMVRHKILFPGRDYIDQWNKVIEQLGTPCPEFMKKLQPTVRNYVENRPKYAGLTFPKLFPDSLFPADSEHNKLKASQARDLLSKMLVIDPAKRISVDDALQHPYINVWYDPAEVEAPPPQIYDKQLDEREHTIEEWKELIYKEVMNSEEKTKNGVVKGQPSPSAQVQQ
T1 sequence (P45983 other isoform, or with tags, fused parts or gaps): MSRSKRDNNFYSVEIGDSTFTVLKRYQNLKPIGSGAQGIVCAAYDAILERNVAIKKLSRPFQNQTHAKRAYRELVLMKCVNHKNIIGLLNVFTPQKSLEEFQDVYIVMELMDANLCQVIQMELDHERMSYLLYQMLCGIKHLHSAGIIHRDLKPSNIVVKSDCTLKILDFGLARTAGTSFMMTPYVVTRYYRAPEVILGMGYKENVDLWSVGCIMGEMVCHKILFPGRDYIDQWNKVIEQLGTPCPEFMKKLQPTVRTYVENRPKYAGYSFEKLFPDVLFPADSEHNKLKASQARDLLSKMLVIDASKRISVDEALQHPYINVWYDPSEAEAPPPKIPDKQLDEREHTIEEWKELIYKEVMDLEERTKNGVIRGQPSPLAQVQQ

[dR]KKR[dR]QRR[dR]RP[dK]RP[dS]TLNL[dF] [SEQ ID NO: 185]
IC50 [1]: 766 nM | IC50 [2]: 35.5 nM

[dR]KKR[dR]QR[dR]RPTDL[dR]L[dW] [SEQ ID NO: 181]
IC50 [1]: 294 nM | IC50 [2]: 47.6 nM

GRKKRRQRRRPTTLNLFPQVPRSQD [SEQ ID NO: 195]
IC50 [1]: 10.8 nM | IC50 [2]: 4.92 nM

[dR]KKR[dR]QRR[dR]RP[dK]RPTDLNL[dF] [SEQ ID NO: 177]
IC50 [1]: 355 nM | IC50 [2]: 45.4 nM

[dR]KKR[dR]QRR[dR]RKAL[dR]L[dF] [SEQ ID NO: 190]
IC50 [1]: 8970 nM | IC50 [2]: 159 nM

[dR]KKR[dR]QR[dR]RPTTL[dR]L[dW] [SEQ ID NO: 179]
IC50 [1]: 249 nM | IC50 [2]: 45.7 nM

[dR]KKR[dR]QRR[dR]RP[dK]RPTTLNL[dW] [SEQ ID NO: 176]
IC50 [1]: 131 nM | IC50 [2]: 22.4 nM

[dR]KKR[dR]QR[dR]RPTTLNL[dF] [SEQ ID NO: 175]
IC50 [1]: 185 nM | IC50 [2]: 60.6 nM

RKKRRQRRRRPKRPATLNLF [SEQ ID NO: 172]
IC50 [1]: 722 nM | IC50 [2]: 102 nM

[dR]KKR[dR]QRR[dR]RP[dK]RP[dK]TLNL[dF] [SEQ ID NO: 187]
IC50 [1]: 594 nM | IC50 [2]: 25.4 nM

[dR]KKR[dR]QRR[dR]GKRKAL[dR]L[dF] [SEQ ID NO: 189]
IC50 [1]: 22300 nM | IC50 [2]: 128 nM

RPKRPTTL[dR]LF [SEQ ID NO: 6]
IC50 [3]: 90.5 nM | IC50 [4]: 120 nM

[dR]KKR[dR]QRR[dR]RP[dK]AA[dA]AANA[dF] [SEQ ID NO: 200]
IC50 [2]: 3820 nM

[dR]KKR[dR]QRR[dR]RPTDL[dR]L[dW] [SEQ ID NO: 180]
IC50 [1]: 265 nM | IC50 [2]: 47 nM

GRKKRRQRRRPPKRPTTLNLFPQVPRSQD [SEQ ID NO: 194]
IC50 [1]: 14 nM | IC50 [2]: 2.59 nM

RKKRRQRRR [SEQ ID NO: 46]
IC50 [2]: 8130 nM

[dR]KKR[dR]QR[dR]KRP[dA]TLNL[dF] [SEQ ID NO: 184]
IC50 [1]: 2430 nM | IC50 [2]: 129 nM

[dR]KKR[dR]QRR[dR]RPTTL[dR]L[dW] [SEQ ID NO: 178]
IC50 [1]: 329 nM | IC50 [2]: 30.4 nM

[dR]KKR[dR]QRR[dR]RP[dK]RP[dQ]TLNL[dF] [SEQ ID NO: 186]
IC50 [1]: 1020 nM | IC50 [2]: 44.2 nM

[dR]KKR[dR]QRR[dR]RP[dA]TLNL[dF] [SEQ ID NO: 182]
IC50 [1]: 1680 nM | IC50 [2]: 59.4 nM

[dR]KKR[dR]QRR[dR]RPTTLNL[dF] [SEQ ID NO: 174]
IC50 [1]: 334 nM | IC50 [2]: 63.1 nM

[dR]KKR[dR]QRR[dR]RP[dK]RPTTL[dR]L[dF] [SEQ ID NO: 173]
IC50 [1]: 88.4 nM | IC50 [2]: 16.8 nM

[dR]KKR[dR]QR[dR]RP[dA]TLNL[dF] [SEQ ID NO: 183]
IC50 [1]: 2590 nM | IC50 [2]: 199 nM

[dR]KKR[dR]QRR[dR]GKRKALKL[dF] [SEQ ID NO: 188]
IC50 [1]: 1420 nM | IC50 [2]: 36.1 nM
